By Kd is commonly meant the free concentration of one partner at which half of the binding sites on the other are occupied at equilibrium, for simple one-to-one binding.

T1 sequence (A8K5I0 entry or part of it): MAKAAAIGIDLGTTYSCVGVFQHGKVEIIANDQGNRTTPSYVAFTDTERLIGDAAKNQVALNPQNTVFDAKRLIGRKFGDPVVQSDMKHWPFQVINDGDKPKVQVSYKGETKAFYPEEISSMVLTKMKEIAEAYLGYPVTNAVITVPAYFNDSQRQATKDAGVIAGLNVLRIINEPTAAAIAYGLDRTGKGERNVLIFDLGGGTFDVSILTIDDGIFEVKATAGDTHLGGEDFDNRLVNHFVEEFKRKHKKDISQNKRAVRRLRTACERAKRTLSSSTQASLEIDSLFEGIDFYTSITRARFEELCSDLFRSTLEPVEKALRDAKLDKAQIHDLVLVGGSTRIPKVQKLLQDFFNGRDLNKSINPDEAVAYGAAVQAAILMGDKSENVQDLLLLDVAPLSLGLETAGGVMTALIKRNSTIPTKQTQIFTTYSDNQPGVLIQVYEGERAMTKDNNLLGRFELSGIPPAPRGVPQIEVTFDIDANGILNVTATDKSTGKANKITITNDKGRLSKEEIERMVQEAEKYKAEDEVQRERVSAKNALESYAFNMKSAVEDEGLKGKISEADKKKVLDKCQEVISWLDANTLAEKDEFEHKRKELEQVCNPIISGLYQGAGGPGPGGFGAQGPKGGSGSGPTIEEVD

One test addresses T1, recombinant human or murine heat shock protein 70 (hsp70) (human or murine). Briefly: binding affinity for HSP70, binding inhibition assay.
NLLRLTGWRKSIINFEKL: the Kd was 0.8 µM.

Consider NLLRLTGWFRSIINFEKL, for which the Kd came out at 1.5 µM.

Take NLLRLTGWQLKSIINFEKL: the Kd stood at 0.4 µM.

For NLLRLTGWFFRKSIINFEKL, the Kd came out at 2.2 µM.

Take NLLRLTGWGSGSIINFEKL: the Kd amounted to 1.6 µM.

Take NLLRLTGWAKVLSIINFEKL: the Kd is 2 µM.

The target of a further test is T1, recombinant human or murine heat shock …. Briefly: binding inhibition assay (Hill plot) against labeled reference hybrid antigen on hsp70.
Regarding NLLRLTGWRKSIINFEKL, the Kd came out at 0.8 µM.

In the case of NLLRLTGWFFRKSIINFEKL, the Kd stood at 2.2 µM.

For the molecule SIINFEKL [SIINFEKL (ovalbumin amino acids 257-264)], the Kd worked out at 235 µM.

NLLRLTGWGSGSIINFEKL: the Kd is 1.6 µM.
